We go through four proteins from patent publication US6541002.

This data set deals with T1, Vpr protein of HIV-1, P12520.
T1 chain: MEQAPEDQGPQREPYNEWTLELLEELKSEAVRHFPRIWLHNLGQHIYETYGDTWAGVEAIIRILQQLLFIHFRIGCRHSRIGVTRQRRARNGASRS

B1: dWF-CAT chimeric protein (protein)
chain: MQPWWAFFGGGSSWWSFSMGPTRMEKKITGYTTVDISQWHRKEHFEAFQSVAQCTYNQTVQLDITAFLKTVKKNKHKFYPAFIHILARLMNAHPEFRMAMKDGELVIWDSVHPCYTVFHEQTETFSSLWSEYHDDFRQFLHIYSQDVACYGENLAYFPKGFIENMFFVSANPWVSFTSFDLNVANMDNFFAPVFTMGKYYTQGDKVLMPLAIQVHHAVCDGFHVGRMLNELQQYCDEWQGGA
For the protein B1, the “CAT activity of virions (conversion of chloramphenicol to an acetylated product)” value is given as “virions which were generated by WT/WF-CAT cells exhibited significantly higher CAT activity (28% conversion of chloramphenicol to an acetylated product) than virions which were generated by Vpr^-/WF-CAT cells (8% conversion)”.

B2: chloramphenicol acetyltransferase (CAT) (protein)
chain: MEKKITGYTTVDISQWHRKEHFEAFQSVAQCTYNQTVQLDITAFLKTVKKNKHKFYPAFIHILARLMNAHPEFRMAMKDGELVIWDSVHPCYTVFHEQTETFSSLWSEYHDDFRQFLHIYSQDVACYGENLAYFPKGFIENMFFVSANPWVSFTSFDLNVANMDNFFAPVFTMGKYYTQGDKVLMPLAIQVHHAVCDGFHVGRMLNELQQYCDEWQGGA
As for B2, the “CAT activity of virions (conversion of chloramphenicol to an acetylated product)” value is reported as “CAT activity exhibited by virions which were generated by Vpr^-/WF-CAT cells was comparable to CAT activity exhibited by virions which were generated by WT/CAT cells (each 8% conversion”.

B3: dWF-IN fusion protein (protein)
chain: MQPWWAFFGGGSSWWSFSMGPTRFLDGIDKAQEEHEKYHSNWRAMASDFNLPPVVAKEIVASCDKCQLKGEAMHGQVDCSPGIWQLDCTHLEGKVILVAVHVASGYIEAEVIPAETGQETAYFLLKLAGRWPVKTVHTDNGSNFTSTTVKAACWWAGIKQEFGIPYNPQSQGVIESMNKELKKIIGQVRDQAEHLKTAVQMAVFIHNFKRKGGIGGYSAGERIVDIIATDIQTKELQKQITKIQNFRVYYRDSRDPVWKGPAKLLWKGEGAVVIQDNSDIKVVPRRKAKIIRDYGKQMAGDDCVASRQDED
With B3, the “presence of the fusion protein in progeny virions (Western blotting)” value is given as “the presence of dWF-fusion proteins in progeny virions was dependent on expression of Vpr in cells in which the progeny virions were produced”.

B4: dWF-PR-IN fusion protein (protein)
chain: MQPWWAFFGGGSSWWSFSMGPTRFLDGIDKAQEEHEKYHSNWRAMASDFNLPPVVAKEIVASCDKCQLKGEAMHGQVDCSPGIWQLDCTHLEGKVILVAVHVASGYIEAEVIPAETGQETAYFLLKLAGRWPVKTVHTDNGSNFTSTTVKAACWWAGIKQEFGIPYNPQSQGVIESMNKELKKIIGQVRDQAEHLKTAVQMAVFIHNFKRKGGIGGYSAGERIVDIIATDIQTKELQKQITKIQNFRVYYRDSRDPVWKGPAKLLWKGEGAVVIQDNSDIKVVPRRKAKIIRDYGKQMAGDDCVASRQDED
B4: the “presence of the fusion protein in progeny virions (Western blotting)” value is “the presence of dWF-fusion proteins in progeny virions was dependent on expression of Vpr in cells in which the progeny virions were produced”.
